From patent publication US8772451

Tests used:
[1] = biological target: cognate MHC/peptide of the 264scTCR (HLA-A2.1/p53 aa 264-272), form in SPR not stated (human); assay: surface plasmon resonance, physiological conditions
[2] = biological target: HLA-A2.1 presenting p53 (aa264-273) peptide, on T2 cells (human); assay: flow cytometry on peptide-loaded T2 cells, fusion protein at 125 pM, H57-PE detection
[3] = biological target: HLA-A2.1 presenting human p53 (aa 149-157) control peptide, on T2 cells (human); assay: as above
[4] = biological target: HLA-A2.1 presenting p53 (aa264-273) peptide, on T2 cells (human); assay: quantitative flow cytometry on peptide-loaded T2 cells, PE anti-human IgG detection

| Kd [1] [nM] | mean channel fluorescence (MCF) [2] [MCF] | mean channel fluorescence (MCF) [3] [MCF] | fold increase in staining against 264scTCR/BirA tetramers [4] [fold] | Substance |
| --- | --- | --- | --- | --- |
| 100 |  |  |  | 264scTCR |
|  | 55.3 | 10.9 |  | 264scTCR/trunIgG1 (from UniProt P01857 1-98) |
|  | 95.1 | 13.4 |  | 264scTCR/BirA (monomeric, without biotinylation) |
|  | 863 | 119 | 4 to 10 | 264scTCR/IgG1 fusion protein (from UniProt P01857 1-330) |
